Reference: paper doi:10.1101/2020.10.19.346148

Legend:
DNA-PKcs = DNA-PKcs (human? (HeLa cells), UniProt P78527 1-4128); experiment: cryo-EM structure
DNA-PKcs;Ku70;Ku80 = DNA-PKcs;Ku70;Ku80 (human? (HeLa cells);human?;human?, UniProt P78527;P12956;P13010 1-4128;1-609;1-732, ||); experiment: cryo-EM structure

Sequence of DNA-PKcs (P78527 whole entry): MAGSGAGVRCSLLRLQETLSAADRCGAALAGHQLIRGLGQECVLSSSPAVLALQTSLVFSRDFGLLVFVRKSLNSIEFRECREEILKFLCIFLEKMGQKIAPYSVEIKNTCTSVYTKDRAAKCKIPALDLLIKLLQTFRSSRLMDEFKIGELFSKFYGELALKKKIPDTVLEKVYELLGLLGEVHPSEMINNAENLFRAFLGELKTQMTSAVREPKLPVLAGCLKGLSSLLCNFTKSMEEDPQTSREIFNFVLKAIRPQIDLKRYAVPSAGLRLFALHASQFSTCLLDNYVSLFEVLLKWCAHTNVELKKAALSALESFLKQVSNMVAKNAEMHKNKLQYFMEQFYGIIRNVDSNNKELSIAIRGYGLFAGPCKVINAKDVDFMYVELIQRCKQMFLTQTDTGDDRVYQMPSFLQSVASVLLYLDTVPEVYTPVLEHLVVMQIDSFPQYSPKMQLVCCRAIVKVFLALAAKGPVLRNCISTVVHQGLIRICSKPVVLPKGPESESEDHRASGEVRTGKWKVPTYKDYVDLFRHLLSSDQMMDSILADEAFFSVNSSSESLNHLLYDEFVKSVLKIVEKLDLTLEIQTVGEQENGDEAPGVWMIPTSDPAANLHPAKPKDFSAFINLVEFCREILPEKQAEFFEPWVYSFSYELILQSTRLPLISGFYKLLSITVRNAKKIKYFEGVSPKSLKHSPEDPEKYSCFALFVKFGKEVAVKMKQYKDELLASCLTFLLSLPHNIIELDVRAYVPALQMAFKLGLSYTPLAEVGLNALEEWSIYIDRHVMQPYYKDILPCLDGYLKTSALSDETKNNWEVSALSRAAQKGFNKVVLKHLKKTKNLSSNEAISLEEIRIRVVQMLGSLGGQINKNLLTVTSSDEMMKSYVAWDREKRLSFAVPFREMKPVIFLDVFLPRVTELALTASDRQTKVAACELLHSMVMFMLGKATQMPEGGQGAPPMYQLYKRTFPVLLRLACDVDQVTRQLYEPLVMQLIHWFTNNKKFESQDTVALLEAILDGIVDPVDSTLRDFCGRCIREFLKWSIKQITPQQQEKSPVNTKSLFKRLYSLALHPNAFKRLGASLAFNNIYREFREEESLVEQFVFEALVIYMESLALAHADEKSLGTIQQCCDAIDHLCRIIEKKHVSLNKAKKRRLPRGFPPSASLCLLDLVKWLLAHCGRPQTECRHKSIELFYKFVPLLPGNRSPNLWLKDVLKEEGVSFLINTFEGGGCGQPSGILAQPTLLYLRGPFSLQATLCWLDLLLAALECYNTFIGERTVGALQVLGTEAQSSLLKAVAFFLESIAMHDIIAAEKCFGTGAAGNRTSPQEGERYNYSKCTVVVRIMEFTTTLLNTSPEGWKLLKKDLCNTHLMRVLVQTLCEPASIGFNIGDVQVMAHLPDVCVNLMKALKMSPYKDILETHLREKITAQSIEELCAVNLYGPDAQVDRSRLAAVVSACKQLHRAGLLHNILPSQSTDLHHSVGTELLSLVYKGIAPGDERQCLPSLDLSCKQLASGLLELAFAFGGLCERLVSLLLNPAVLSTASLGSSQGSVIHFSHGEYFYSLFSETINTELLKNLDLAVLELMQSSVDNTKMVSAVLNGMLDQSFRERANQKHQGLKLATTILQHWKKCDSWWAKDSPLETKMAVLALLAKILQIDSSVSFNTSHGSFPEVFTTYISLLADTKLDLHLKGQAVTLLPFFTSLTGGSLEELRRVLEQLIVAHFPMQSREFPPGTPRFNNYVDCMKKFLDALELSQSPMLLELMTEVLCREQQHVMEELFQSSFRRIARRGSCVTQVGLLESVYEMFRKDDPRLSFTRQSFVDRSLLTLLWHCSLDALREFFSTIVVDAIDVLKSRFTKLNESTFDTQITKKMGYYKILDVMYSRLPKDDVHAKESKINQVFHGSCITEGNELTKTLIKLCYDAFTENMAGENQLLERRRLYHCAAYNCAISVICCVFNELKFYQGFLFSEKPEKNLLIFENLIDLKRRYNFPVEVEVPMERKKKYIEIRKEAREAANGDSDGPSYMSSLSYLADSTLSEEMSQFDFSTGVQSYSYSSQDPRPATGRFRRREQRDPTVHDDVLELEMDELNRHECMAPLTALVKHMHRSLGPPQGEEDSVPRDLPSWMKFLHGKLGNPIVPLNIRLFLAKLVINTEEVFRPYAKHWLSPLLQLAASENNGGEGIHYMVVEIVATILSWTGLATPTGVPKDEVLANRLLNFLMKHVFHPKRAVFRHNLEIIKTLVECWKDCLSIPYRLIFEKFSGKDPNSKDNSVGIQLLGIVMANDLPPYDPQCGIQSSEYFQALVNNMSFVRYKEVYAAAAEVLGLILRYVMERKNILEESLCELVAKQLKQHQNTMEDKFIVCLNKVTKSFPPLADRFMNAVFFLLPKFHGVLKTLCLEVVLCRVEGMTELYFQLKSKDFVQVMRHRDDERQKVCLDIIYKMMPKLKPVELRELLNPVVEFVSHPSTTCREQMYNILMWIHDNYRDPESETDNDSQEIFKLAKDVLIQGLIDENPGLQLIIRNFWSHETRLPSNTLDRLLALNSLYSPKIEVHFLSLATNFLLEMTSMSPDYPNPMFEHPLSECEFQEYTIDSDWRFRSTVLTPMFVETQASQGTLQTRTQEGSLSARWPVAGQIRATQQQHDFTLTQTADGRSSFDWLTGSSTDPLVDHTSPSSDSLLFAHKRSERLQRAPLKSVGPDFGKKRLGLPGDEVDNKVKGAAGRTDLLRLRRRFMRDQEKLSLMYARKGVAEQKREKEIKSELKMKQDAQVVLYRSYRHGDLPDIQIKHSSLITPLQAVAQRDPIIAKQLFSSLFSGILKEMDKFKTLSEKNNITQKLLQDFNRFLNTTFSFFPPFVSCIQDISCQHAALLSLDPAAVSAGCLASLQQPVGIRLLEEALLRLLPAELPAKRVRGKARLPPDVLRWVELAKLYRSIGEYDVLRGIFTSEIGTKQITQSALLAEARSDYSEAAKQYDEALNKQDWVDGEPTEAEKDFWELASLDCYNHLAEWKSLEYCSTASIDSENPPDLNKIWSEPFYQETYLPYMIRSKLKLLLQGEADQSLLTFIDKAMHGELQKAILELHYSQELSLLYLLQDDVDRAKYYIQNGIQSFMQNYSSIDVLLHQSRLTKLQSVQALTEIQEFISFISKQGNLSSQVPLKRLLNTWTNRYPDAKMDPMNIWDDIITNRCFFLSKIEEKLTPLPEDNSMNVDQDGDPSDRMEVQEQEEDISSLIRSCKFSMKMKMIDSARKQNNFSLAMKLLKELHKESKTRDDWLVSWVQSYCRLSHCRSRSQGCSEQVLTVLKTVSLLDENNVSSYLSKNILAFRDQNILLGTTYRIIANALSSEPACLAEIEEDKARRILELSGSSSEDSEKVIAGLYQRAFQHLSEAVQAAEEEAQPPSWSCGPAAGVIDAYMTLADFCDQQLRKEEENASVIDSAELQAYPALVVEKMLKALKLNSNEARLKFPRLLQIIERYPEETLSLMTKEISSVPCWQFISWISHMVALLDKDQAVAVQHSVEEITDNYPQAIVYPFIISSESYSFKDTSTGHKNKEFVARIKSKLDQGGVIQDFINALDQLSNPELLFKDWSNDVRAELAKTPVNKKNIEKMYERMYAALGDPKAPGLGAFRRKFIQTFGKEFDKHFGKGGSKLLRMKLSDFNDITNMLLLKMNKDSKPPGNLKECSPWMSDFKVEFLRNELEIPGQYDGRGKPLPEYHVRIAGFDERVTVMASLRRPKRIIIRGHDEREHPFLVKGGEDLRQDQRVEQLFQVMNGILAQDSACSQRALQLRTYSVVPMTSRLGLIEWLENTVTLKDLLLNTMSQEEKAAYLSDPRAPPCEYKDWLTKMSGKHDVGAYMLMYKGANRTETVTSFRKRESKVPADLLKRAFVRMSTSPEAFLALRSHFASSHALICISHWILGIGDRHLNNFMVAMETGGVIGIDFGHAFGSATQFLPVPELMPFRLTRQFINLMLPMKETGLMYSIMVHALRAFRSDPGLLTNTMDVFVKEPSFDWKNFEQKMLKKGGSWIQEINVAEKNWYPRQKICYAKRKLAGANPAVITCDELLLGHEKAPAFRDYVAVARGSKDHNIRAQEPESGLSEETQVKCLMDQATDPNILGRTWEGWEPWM

B1: 40 bp blunt DNA with two internal nicks (dsDNA)
DNA 1: GCATGCTCTACTGCTTCGATATCG
DNA 2: AAGCAGTAGAGCATGC
DNA 3: GCATGCTCTACTGCTTCGATATCG
DNA 4: AAGCAGTAGAGCATGC
Question: Which results are given for B1?
Answer: binding result (DNA-PKcs): binds; binding result (DNA-PKcs;Ku70;Ku80): binds
